In patent US9931401B2, “Combination comprising anti-fibroblast growth factor receptor 2 (FGFR2) antibody and a tyrosine kinase inhibitor” (Daiichi Sankyo Company, Limited, priority 2013, dated 2018):
“Also recorded” adds a separate entry of the source.

What was measured:
[1] = tested on: FGFR2, FRS2, and ERK phosphorylation in stomach cancer cell line SNU-16; assay: FGFR2 signal inhibitory effect on SNU-16 by Western blotting; format: cell-based, human; conditions: FGF7 10 ng/ml, 10 minutes
Procedure: The FGFR2 signal inhibitory effect of the obtained antibody was tested using a stomach cancer cell line SNU-16 endogenously expressing FGFR2. SNU-16 cells (3×10^6) suspended in an RPMI medium containing 0.1% bovine serum albumin were seeded onto a 12-well plate and incubated overnight. The rat FR2-10 antibody was added thereto, and the cells were incubated at 37° C. for 1 hour. Then, 10 ng/ml FGF7 (manufactured by R&D systems, Inc.) was added thereto, and the cells were further incubated for 10 minutes. Subsequently, the cells were lysed with an RIPA buffer (1% NP-40, 0.5% sodium deoxycholate, and 0.1% SDS in PBS) containing Complete Mini (manufactured by Roche Applied Science) and a phosphatase inhibitor (manufactured by Nacalai Tesque Inc.). The lysates were centrifuged to obtain the cell lysis solution, and the protein concentration was determined using BCA protein assay (manufactured by Pierce Biotechnology, Inc.). The lysates were resuspended in a DTT-containing buffer and denatured at 99° C. for 5 minutes. The protein (20 μg/lane) was separated by SDS-PAGE on a 5 to 20% gel. The protein was blotted onto a PVDF membrane (manufactured by Bio-Rad Laboratories, Inc.). The membrane was blocked with TBS-T (2 mM Tris, 50 mM NaCl, and 0.1% Tween-20 (pH 7.4)) containing 5% skimmed milk (MEGMILK SNOW BRAND Co., Ltd.) at room temperature for 1 hour. […]

human FGFR2 IIIc = molecular target: T1, human FGFR2 IIIc (Homo sapiens, UniProt P21802); assay: Elk1 luciferase reporter gene assay, FGFR2 IIIc-expressing 293α cells, ligand FGF9; format: cell-based; conditions: antibody preincubated 1 hour; FGF9 10 ng/ml, 6 hours
T1 construct: a human FGFR2 IIIc variant protein (isoform 1: NP_000132); expressed in transfected cells; host or cells: 293α cells (HEK293 stably transfected with integrin αv and β3)
T1 sequence (P21802 22-821): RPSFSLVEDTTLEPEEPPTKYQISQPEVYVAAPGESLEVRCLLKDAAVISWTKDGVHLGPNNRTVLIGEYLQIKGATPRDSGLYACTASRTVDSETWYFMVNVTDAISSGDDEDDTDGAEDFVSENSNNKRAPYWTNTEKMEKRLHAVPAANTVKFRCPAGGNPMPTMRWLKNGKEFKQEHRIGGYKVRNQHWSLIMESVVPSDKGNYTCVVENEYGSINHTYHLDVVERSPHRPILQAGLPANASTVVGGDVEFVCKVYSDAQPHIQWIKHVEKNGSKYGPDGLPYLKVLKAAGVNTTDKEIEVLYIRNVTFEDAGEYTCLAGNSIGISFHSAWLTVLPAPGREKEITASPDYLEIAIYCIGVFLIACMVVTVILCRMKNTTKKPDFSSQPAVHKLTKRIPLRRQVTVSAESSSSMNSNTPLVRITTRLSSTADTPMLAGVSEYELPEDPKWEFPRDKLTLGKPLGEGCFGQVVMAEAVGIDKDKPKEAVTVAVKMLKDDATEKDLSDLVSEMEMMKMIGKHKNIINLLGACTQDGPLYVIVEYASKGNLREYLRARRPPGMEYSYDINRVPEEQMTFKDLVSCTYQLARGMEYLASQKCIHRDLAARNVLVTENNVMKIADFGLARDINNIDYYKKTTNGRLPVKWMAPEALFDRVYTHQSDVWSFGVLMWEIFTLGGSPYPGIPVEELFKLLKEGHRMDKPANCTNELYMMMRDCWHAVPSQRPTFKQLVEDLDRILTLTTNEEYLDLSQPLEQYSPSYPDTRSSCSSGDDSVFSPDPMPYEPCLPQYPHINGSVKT
Procedure: The Elk1 luciferase reporter gene assay was carried out using each hybridoma culture supernatant selected in Example 1)-5. A cell line 293α, which was HEK293 cells stably transfected with integrin αv and integrin β3 expression vectors, was transiently cotransfected with pcDNA-DEST40-FGFR2 IIIb or pcDNA-DEST40, pFA2-Elk1 (manufactured by Stratagene Corp.), pFR-Luc2CP, and pGL4.74[hRluc/TK] (manufactured by Promega Corp.) according to transfection procedures using Lipofectamine 2000 (manufactured by Invitrogen Corp.), inoculated to a white 96-well cell culture plate (manufactured by Corning Inc.), and cultured overnight at 37° C. under 5% CO2 conditions. On the next day, the culture supernatant was removed, and the hybridoma culture supernatant diluted 5-fold with DMEM containing 5% FBS was added at a concentration of 50 μl/well to the plate. […] The firefly/Renilla ratio was calculated to normalize data on each well.
In order to evaluate the signal-neutralizing effects of the obtained antibodies by the Elk1 luciferase reporter gene assay, 293α cells were cotransfected with pcDNA-DEST40-FGFR2 IIIb or pcDNA-DEST40-FGFR2 IIIc constructed in Example 1)-3-1, pFA2-Elk1 (manufactured by Stratagene Corp.), pFR-Luc2CP, and pGL4.74[hRluc/TK] […] The firefly/Renilla ratio was calculated to normalize data on each well. […]

ligand FGF9 dependent reporter activation in the FGFR2 IIIc-expressing cells (human FGFR2 IIIc) | Molecule | phosphorylation of FGFR2, FRS2, and ERK induced by FGF7 [1]
 | FR2-10: anti-human FGFR2 rat monoclonal antibody obtained by the method described in Example 1; VH SEQ ID NO: 12, VL SEQ ID NO: 21 (antibody, listed as Rattus norvegicus, V domains shown) VH: EVQLVESGGGLVQPGRSLKLSCVASGFRFNDFWMTWIRQAPGKGLEWVASITYTGDNTYYAGSVKGRITISRDNAKSTLYLQMNSLRSEDTATYYCTRDDYGGYSPYYMDAWGQGTSVTVSS VL: DIQMTQSPSSLSAFLGDRVTITCRASQDIGNYLRWFQQKPGKSPRLMIYGATNLANGVPSRFSGSRSGSDYSLTINNLESEDMAIYYCLKHNEYPFTFGSGTKLEIKRA | inhibited FGFR2, FRS2, and ERK phosphorylation; also recorded: inhibited the increase in the phosphorylation of these molecules in a concentration dependent manner
inhibited | FR2-13: anti-human FGFR2 rat monoclonal antibody obtained by the method described in Example 1; VH SEQ ID NO: 14, VL SEQ ID NO: 24 (antibody, listed as Rattus norvegicus, V domains shown) VH: QVKLLQSGAELVKPGASVKLSCKTSGFTFSTSYMSWLKQVPGPSIEWIGWIYAGDGGTKYNQKFKGKATLTVDKSSSTAYMDLSSLTSEDAAVYFCATDGYGDWFAYWGQGTLVTVSS VL: DIQMTQSPASLSASLGETVTIECRASEDIYSNLAWYQQKPGNSPQLLIYDANILADGVPSRFSGSGSGTQYSLKINSLQSEDVASYFCQQYNNYPPFTFGVGTKLELKRA | 
inhibited | FR2-14: anti-human FGFR2 rat monoclonal antibody obtained by the method described in Example 1; VH SEQ ID NO: 16, VL SEQ ID NO: 26 (antibody, listed as Rattus norvegicus, V domains shown) VH: QVKLLQSGAELVKPGASVKLSCKTSGFTFSTSYMSWLKQVPGPSTEWIGWIYAGDGGTKYNQKFKGKATLTVDKFSSTAYMDLSSLTSEDAAVYFCATDGYGDWFTYWGQGTLVTVSS VL: DIQMTQSPASLSASLGETVTIECRASEDIYSNLAWYQQKPGNSPQLLIYDANILADGVPSRFSGSGSGTQYSLKINSLQSEDVASYFCQQYNNYPPFTFGAGTKLELKRA | 
